Measured values reported in article PMC3469819.

What was measured:
[1] = target: full-length human CDK9 (residues 1–372) (human) (UniProt P50750)
[2] = target: full-length human CDK9 (residues 1–372) (human) (UniProt P50750); remark: listed apart in the source
[3] = target: truncated CDK9 construct CDK9_(330) (residues 1–330) (human) (UniProt P50750)
truncated CDK9 construct CDK9_(330) (residues 1–330) (human), sequence (P50750 1-330): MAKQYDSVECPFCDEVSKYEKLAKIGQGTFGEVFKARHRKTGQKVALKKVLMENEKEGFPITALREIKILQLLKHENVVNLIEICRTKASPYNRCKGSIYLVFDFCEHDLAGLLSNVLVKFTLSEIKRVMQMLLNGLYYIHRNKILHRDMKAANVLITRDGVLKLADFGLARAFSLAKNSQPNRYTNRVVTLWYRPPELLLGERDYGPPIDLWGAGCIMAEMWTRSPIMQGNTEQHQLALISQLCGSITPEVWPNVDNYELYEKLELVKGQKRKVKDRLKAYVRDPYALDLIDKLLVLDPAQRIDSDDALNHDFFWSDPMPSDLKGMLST

full-length human CDK9 (residues 1–372) (human), sequence (P50750 whole entry, the tested form may be a part): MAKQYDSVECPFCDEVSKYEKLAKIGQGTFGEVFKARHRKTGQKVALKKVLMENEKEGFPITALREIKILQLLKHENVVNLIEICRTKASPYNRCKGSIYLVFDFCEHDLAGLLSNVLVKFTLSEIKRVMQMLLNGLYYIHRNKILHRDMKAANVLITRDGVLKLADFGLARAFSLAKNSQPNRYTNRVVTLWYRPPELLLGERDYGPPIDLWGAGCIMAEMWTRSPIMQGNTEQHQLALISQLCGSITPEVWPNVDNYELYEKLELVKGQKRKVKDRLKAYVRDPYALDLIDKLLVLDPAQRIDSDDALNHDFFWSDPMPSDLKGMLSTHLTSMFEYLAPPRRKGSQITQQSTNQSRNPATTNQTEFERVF

K (M, CTD): overall Michaelis constant for GST-CTD of CDK9FL/cyclin T, from initial rates with both GST-CTD and ATP varied [1]: 115 µM | K (M,app) for GST-CTD of the kinase activity of CDK9FL/cyclin T (32P incorporation into GST-CTD, fixed ATP) [2]: 24.3 µM | K (M,app) for GST-CTD of the kinase activity of CDK9 (330)/cyclin T (32P incorporation into GST-CTD, fixed ATP) [3]: 21.3 µM
Substance: GST-tagged version of the human Pol II CTD (from UniProt P24928 1587-1970) (domain or fragment)
